Results reported in patent US20110117206A1, “PHOSPHOPEPTIDES AND USE OF THE SAME” (PLANT BIOSCIENCE LIMITED, priority 2008, published 2011).

Columns and labels:
[1] = SAXS and structural model of calcium phosphate nanoclusters; assay type: physicochemical; conditions: from modelling of the structure
Method: For the OPN 1-149 nanocluster, a description of the peptide segment distribution around the core was considered which is more explicit than that provided by the core-shell model. The simplest block copolymer micelle model has been used in which a corona is formed by Gaussian chains attached by one end to a uniform spherical core. The nanoclusters were prepared either on the SAXS station and measured immediately or were prepared 2 days previously to allow the system to come to equilibrium. The sample was then stored at room temperature and remeasured 5 months later during a later allocation of beamtime. […] The intensity averaged diffusion coefficient, D, was determined with a Malvern Zetasizer Nano instrument.
The results of the SAXS measurements on nanocluster sub-samples measured as a function of time after the addition of the urease are summarised in FIGS. 6a and 6b. […] According to the calculated degree of reaction of the phosphate centres and to the analysis of the correlation function given by the dynamic light scattering studies, the equilibrium state has a significant excess of free peptide, the scattering from which, although negligible at low q, has to be taken account of in modelling the SAXS at higher q. […]

[2] = Ca2+ binding isotherm (Ca ion selective electrode) fitted with semi-empirical binding model; conditions: 6.4 = high affinity dianionic phosphoseryl sites; listed as OPN peptide
Excerpt: To model the chemical species in the OPN 1-149 nanocluster solution requires the calculation of Ca ion binding to the free peptide at any pH in the range 5.0-8.0. A semi-empirical model was used to describe the binding isotherms obtained previously for the β-casein 1-25 phosphopeptide in this pH range and the same model was adapted to fit the binding isotherm of OPN 1-149 measured at pH 7.0. The rescaled model was then used to predict binding at any other value of the pH. Binding of Ca ions to the β-casein 1-25 peptide is predominantly to 4 phosphorylated residues and, to a lesser extent, to 7 Glu residues and the C-terminus.
Fitting of the experimental isotherms was done to an equation of the form
where the summation is over all binding sites with Ca ion association constants Ka,i. The function Ni(pH) describes the number of sites of type i as a function of pH and φi is the degree of phosphorylation. It was assumed, that all the phosphorylated sites had the average degree of phosphorylation φ. The number of dianionic phosphoseryl sites at a given pH is given by
The binding behaviour of β-casein has shown that one Ca ion is bound much more strongly than the rest, so the model for binding to the phosphate dianionic groups allowed for two pKs and two Ca ion association constants. The phosphorylated sites have a reduced affinity for Ca ions when they become protonated and were treated as having the same low affinity as the carboxyl groups. […]
The Ca^2+ binding isotherm of peptides recovered from fraction F3a was determined by measuring the concentration of free Ca ions with a Ca ion selective electrode after successive small additions of a stock solution of 100 mM Ca(NO3)2 to a solution containing 25 mg ml^−1 of F3a, buffered to pH 7.0 with 20 mM P, and 50 mM KNO3. […] The calculated OPN 1-149 isotherm was obtained by a separate fitting of the single isotherm employing a model with two pKs and association constants but keeping as many as possible of the constants from the casein model.

## OPN 1-149: N-terminal osteopontin phosphopeptide fragment from bovine milk, probably formed by plasmin; gel filtration fraction F3a
[1]
  number of peptide chains on a nanocluster: about 2618
[2]
  pKs fitted to the OPN 1-149 isotherm: 6.4
